Laboratory results: US20040241164A1 (published 2004)

Molecular target: T1, Soluble Aβ 1-40 (UniProt P05067 672-711)
T1 construct: domain: Aβ 1-40; Unaggregated, predominantly monomeric peptide flowed over captured antibody; The numbers 1-40 count on the Aβ peptide, not on the APP precursor
Assay: BIAcore SPR, alternate method: antibody captured on protein A or A/G, Aβ 1-40 in flow, 5 hour dissociation, 1:1 model with mass transfer; alternate method: antibody captured on protein A or A/G, 5 hour dissociation
Method: Protein A or protein A/G is immobilized via amine coupling to flow cells 1 and 2 of a B1 or CM5 sensor chip (BIAcore). The test antibody is then captured in flow cell 2 at desired levels (usually a 10-60 second injection of antibody) and 5 minutes is allowed for the antibody to stabilize. […] Each concentration is injected over the surface for 5 minutes at a flow rate of 50 μL/min. […] Aβ 1-40 and antibody are then eluted from both flow cells with a 40 second injection of glycine (pH 1.5). The signal is allowed to stabilize for 2 minutes before the next cycle. The data from flow cell 1 is subtracted from flow cell 2 to account for any bulk shifts due to buffer differences or non-specific binding to the sensor chip or protein A. The various concentrations are injected randomly and each concentration is run in duplicate. Two 0 nM runs are used to control for any dissociation of antibody from the protein A or A/G capture surface. The data is analyzed using the Biaevalution software. A 1:1 model with mass transfer and a local Rmax is used as the best fit for the data.

B1: humanized 266 antibody (antibody, human IgG1, kappa, V domains shown)
VH: EVQLVESGGGLVQPGGSLRLSCAASGFTFSRYSMSWVRQAPGKGLELVAQINSVGNSTYYPDTVKGRFTISRDNAKNTLYLQMNSLRAEDTAVYYCASGDYWGQGTLVTVSS
VL: DVVMTQSPLSLPVTLGQPASISCRSSQSLIYSDGNAYLHWFLQKPGQSPRLLIYKVSNRFSGVPDRFSGSGSGTDFTLKISRVEAEDVGVYYCSQSTHVPWTFGQGTKVEIKR
A Kd of 0.4 nM was found for B1 in this work.
